Test system: T1, Ms6 integrase (Int) (Mycobacterium phage Ms6)
T1 sequence: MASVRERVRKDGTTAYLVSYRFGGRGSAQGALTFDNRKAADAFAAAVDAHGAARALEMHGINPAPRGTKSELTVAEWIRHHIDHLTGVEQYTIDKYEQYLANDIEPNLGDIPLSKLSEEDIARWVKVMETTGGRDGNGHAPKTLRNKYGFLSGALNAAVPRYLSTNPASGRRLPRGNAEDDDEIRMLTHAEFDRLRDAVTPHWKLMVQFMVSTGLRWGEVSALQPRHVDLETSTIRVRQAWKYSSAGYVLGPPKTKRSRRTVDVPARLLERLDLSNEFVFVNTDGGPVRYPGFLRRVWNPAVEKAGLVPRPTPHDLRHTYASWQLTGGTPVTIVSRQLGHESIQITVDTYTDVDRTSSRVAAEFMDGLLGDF
Test: cell_activity
Conditions: for activity (transformants/ug DNA): M. smegmatis

Work on “CAGCAGACACCCACATGTCCGTGTTGTCACTGACAACACGGCTCCAGGTTTTCCCAGGTCGCTACAGGTCTAAAAAGGTCGGAACAGAACCACACGGGTGTTTTTTCGCAGGTAAACGCCCATTTCCCCACGATCGAAGGGGTTCGAATCCCCTTAGCTCCACCCAAAACCGCAGGTCAGCGAATCGCCCAGAATCTGACAGCACCGATGACATCACAACGGATAGAATCCGGGTATGGCATCAGTGCGTGAACGGGTCCGCAAAGAC (double strand) [Ms6 attP region, 273 bp (pAV3, primers p13/p2N)]” yielded an activity (colonies/ug DNA) (integrase in trans from suicide helper pAV4, about) of 40000.
For “Ms6 attP-int fragment, 1382 bp (primers pC/p10)”, the activity (transformants/ug DNA) (no integration) was 0.
“Ms6 attP-int fragment, 1459 bp (primers p1C/p10)” was tested, and the activity (transformants/ug DNA) (no integration) was 0.
With “Ms6 attP-int fragment, 1521 bp (primers p13/p10)” the activity (transformants/ug DNA) (smallest functional cassette) was 100000.

From US6833135
